The results in this text go back to the domain aggregation screens of Martell et al. (2025).
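Also: 20 min heating vs room temperature control held 20 min.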

This data set is described as follows: soluble fraction after stress (log2 fold change); higher = more stays soluble; pooled small domains, quantitative proteomics. The note with it: stress: 75 degC.
“HMTMGAAEAQALKDEALELYRTGGTQEDVVRAIEMYEQAAEAGNAQAASDLAYLKANGVYETAMNN”: the “soluble fraction (log2)” value was 0.263. Then “HMTMQQGTISRLNHSRGFGFLTTPDGEDLFFHRTNVHETPFARLQVGDRVTYDVQVTPRGTRADKVQLNM”, with -0.261; and “HMTMRFVVADGQNFGSIAQSKALEAVKKGNTEFNYKDVDYTVDIQSDDFYVVYQGRDIMGYASR”, with -1.11. In the case of “HMTMTIEITVNGKTKTLVAELSLADLLRDLGMTKGRIAVELNGHIVPRSQFSSKTISNLDSIEIVQ” it was -3.43; in that of “HMTNADRYIGQEATVTEKISNELSTGAVRIGGLVWTARTVDNSEAEEGERVTVEAIEGAKLLVKRR”, 0.132; in that of “HMTNEPRLTNMGFNKMLIENYKMILEYQDFFIRISTQIGIININGFDLKLGEMTADEVLVTGKIESIDL”, 0.429.

On to “HMTNIDRLIGQTAIVKETINNKKEQGVVRINGMDWTARTEEIDEVILKGKPVEILDIQGIKLIVRKK”, for which the “soluble fraction (log2)” value was -0.545. Turning to “HMTNIELYQRLLNLGFTPAQAKILLVQYDETRLTDNLNYVDFKKQQGNIENLPAYTTTIIKKDVRL”, the “soluble fraction (log2)” value is -1.14. Then “HMTNIQFINLKMTDNHPWIHQYIKDIILPPQTRIVMIKRNDIKTIPKGERRIEKDDELILSAFESQT”, with -2.06; and “HMTNKKIILEIFQNSDKPLIVEEISKKMFEKTGKKMILSTIYRNLKNMEDVGILKKIYNEDGSYMYIF”, with -1.02; and “HMTNKQEYAYQWLKSSIIENKIKPSTLLVERHLSEMLHISRTPVRTALMRLADEGFVVISPGRGMVVA”, with -2.32.

As to “HMTNQEFNAAFKPFLDYFPTTEMTKEKINIYYLALSDLSKEQLGSAFISMVKNRVYKNFPQVAEIRQYATN”, the “soluble fraction (log2)” value was -0.803. Then “HMTNTDYPGKVVPVDPDGKTLKPDGDASYNDKPGTKVKTPTVPGYTAEVPNVEVPVGGGDIKVTYHKKPV”, with -0.0351; and “HMTNVYSLIGKRGIVVEDIDWQKGTGQVKIDGELWSVKTNEQINISKGTEVEVENIEGVKVFVKPI”, with -0.121; and “HMTNYGTVRPGARGQAVTALQQALIRHGYKLTADGIYGRATRQAVRAFQQKHKLKVDGIVGSKTWALLLAD”, with -2.13. Then “HMTPDGNATVWSANGYGVRLRTGPGKGYAIIGVYSVGTTVKVLERGPAGGWDHIQVGSRVGYMMNEFLHYY”, with -3.16. For “HMTPDLSEFKERLRQILPGEPIEVRTANDGIVLSGTVTSIAALDRALDLAERYAPDKVSNLLSVG”, the “soluble fraction (log2)” value amounted to 0.149.

As to “HMTPELTAEEREVLSLLGDEPRTLAELIAASGRDYAALSVLLMGLELSQAVRQLPGNRYERF”, the “soluble fraction (log2)” value is -0.84. Then “HMTPGPFLVYITGAVERPNVLVTLDYGSRVIDALNAAGGSRIDANLDLVNLAQRLVDGDQIHVPTLR”, with -1.17; and “HMTPGPYETLKPAPLGSYIEPKIGFATAIEIARKEAVQLGIKTEAGGIWYGGDFPFYNVSFFDPDD”, with -0.842. In the case of “HMTPKVTVPDVTGQTFSSAKQILESLGFTVKQQGSTDETDQVIDQNPTSGEADKGATITLTTKSS” it was 0.0908; in that of “HMTPPAQQPHEGLPTDETATDAKTLVQKSRWWLEEEQRQREAGNTAYAERIRLALIQLLYRAERA”, -0.713; in that of “HMTPQNAAAVLRYLSSGAIKGVGPSTAQRIVEKFGAESLDIIQNKPEELATIRGISLSKALAVSEEYNKQY”, -0.289. On to “HMTPTFSNQDLIKAGLAGSPVAKRRRERLGELLGIGYGNAKQLLKRLDLFAIDRPTFERAVAQLDQEGK”, for which the “soluble fraction (log2)” value is -0.465.

Consider “HMTPVSQIATKDIEEKIDSLSDEYKDPFILHFKGFKYKEIADQLDIPIGTVKSRIFIARKKLIDLLPDY”, for which the “soluble fraction (log2)” value turned out to be 0.0524. Then “HMTQEHDESVNLGKRLLDQALSRFGTSYRQLKKSEIKRILQSSGASTFKYILHQIGLGNRVPLAIANLIV”, with -0.0539; and “HMTQEMPAEVKKKADAFNNAMDEENYTEAKAILAELEQNTAPSYPLLLQMQTRYAFETASWE”, with 0.00338. Take “HMTQFSASSERAGAGGAYRTTLRAMEQNGDLLQISILLPDAVTAKHAATVWPERAQAIYTAILSELLK”: the “soluble fraction (log2)” value is -1.71. In the case of “HMTQGIDQISFSQFLDKVQSGEVTDVRISGSDITGTLKTGGKFETVAGNYEKIWDLLRENKVVFVVDSP” it was 0.332; in that of “HMTQNSAITNRVLYMQRTLRQYGYAVPESGNFDRTTRAHAAEFLYNATGLPVRENQSVQEFYRAFQRVQG”, -1.77; in that of “HMTQRRLQSELDSIPGVGAGTRTKLLRTLGSVDAVLRASEAELLAAGANRRQVASIQAHAAAVER”, -0.0213. In the case of “HMTQSQSLQSQFEQLEKAYQDNLHLLSPKQKLIIQEAGKIIQQLPQQAQIQAKVNLYQSLSAEISKESQQ” it was 0.1. Then “HMTQTDINQIETLVHEGNKLAAVKLLMDTAHIGLKEAKDIIDNFFLGKQTDLQAAVAQVQTR”, with 0.902; and “HMTRHIQVNDSIASTPIEDVYFSTRTYNALLNNGISVIGDLSKYTHDDLYASFQGLGRAGVLEIEAYLRQD”, with -1.43.

“HMTRHSSVDFAGYILRNKENEPIFGFGKHKGKTVVEVLQREQGYFGWLMEADFPLYTKKVLTAIRLNTLNS”: the “soluble fraction (log2)” value is -0.261. With “HMTRLDLQNAFRVLPPEIQPAAVLFFLQERKQREIAKILGIGLPLVKYRIRKARELLAQFLRKEA”, the “soluble fraction (log2)” value is -0.225. Then “HMTRNEFLTALRGRLSALPKEEQDAALKYYEEYFDEAESEEDAARQLGSPDSIAEKILADYA”, with 0.418; and “HMTRQNTAVQQSDMAHHKASELTEGMSIVHSHFGRGTIISIETADDPRVTVDFSSEGRKTMLLRFAKFAIE”, with -0.941. Then “HMTRQRQLIYNIIQRADDHPTAEMIYARAKAEMPSIAFGTVYRNLKLMVDAGEILHIPVAGEPDRYDK”, with -1.96; and “HMTRVANIPYSEFLKLVETDKINDVSMVGKTISGHLDDGTKFSTYTPPNDPNLIDKLSKHNVIIKAGPE”, with -0.000643. Regarding “HMTRVDKLQTWLSLPREQRDWDEGALMLLQLTGNKIMYRNLSVNPEGKANFIEGKLQQYLEFRLA”, the “soluble fraction (log2)” value was -1.25. In the case of “HMTSAHEKAFDLFDGGKLSEKALLIAVGAERSGFELAGDLRLRTLTAFEDGRLSEDAMIKLL” it was -0.299; in that of “HMTSAIAEGTVIRLTQSTNIRESMSEDAPKVATAFSGEKVTVIMSYAEGWTKVTYGDKTGYIKTELL”, -1.1; in that of “HMTSAPHHIAAVLRDAIYRGVLEEGGPLHQARIAQSLGVSPIPLREALRLLETEGLVEFRGYRGAFVT”, -0.557. “HMTSDADSLRDKTGYVAEQVTSKGGKVNLYDGGFDSLYSARSTGETISTGTEIRVVDPGGGNMLVVEPV”: the “soluble fraction (log2)” value turned out to be 0.948. In the case of “HMTSDYEPSEKDEKAVIGIAFLRNTDVYDVDIDKAEAIKALKANNDIYQKFVKFFPFVKLPSLYDDFQ” it was 0.251; in that of “HMTSGPAWPALSAQQRSVLAPLQRDWHTIDAARKAKWLEVAARFPSMPAEERQRVQERMAEWA”, -0.0911.

On to “HMTSKIIIGDSYSKINKLLGEPENMKKRKFLDNEYLMVLYSINKKNYRLYFKDNILFELEDI”, for which the “soluble fraction (log2)” value was -0.991. Then “HMTSLQDLLEELRVIRETLTGSQVLSDMQLFSQLRNLGDIKAALTRMQDNPAAARMVGEVDKLLETMFAS”, with -1.97; and “HMTSLSYINDLVTGATAQGLYRIVVPNQFMDDNMANVLRRTYGYQVQSRTSLMGTFDDYIISWAPPM”, with -2.9. In the case of “HMTSMTHLGRHPDSEISLDDISVSRRHAEIERQGHEYVLRDSGSLNGTYVNQQRVDSVVLQQGDEIL” it was 0.48; in that of “HMTSPLQIHPNPATKHIELGLESPEVVLIKDINGKTVYQELVAPNQYIDIEHLKNGIYFIESKNKFGKLIK”, 0.0829; in that of “HMTSPNPLIRSTTPGLETNKKGGIIVDENEMSTRENVFAGGDAVTGAATVILAMGAGKKAAAAIDAKLQN”, 0.461. In the case of “HMTSPQGIERFLASGVIEGVGKAMAARIVAVFGGQTLEIIEKQPHRLREVRGIGVKTAEKIHASYQEKA” it was -0.841; in that of “HMTSPVEDLLDKAIQLYREENFEEAIAKWEEVLALDPSKLEAKFNIEIAQDRIKEKQIQEDLKSS”, 0.341; in that of “HMTSQVTVHVVGAVEKPGVVTLDAPSRVQDALEAAGGALPEAELSGVNLARELFDGEQIVVPAQGEDV”, 0.342. For “HMTSSVIIPKLIGKTEEEAKVALAGLNVQVLYETHGDQANGIVIKQSFEEGTKVIKGVSIVITVNKVS”, the “soluble fraction (log2)” value is -1.91. Then “HMTSTEQEILIEHMVDRLPALRKKYGISQTELGEKIGLSRQTISAIERKTTPLTWTTMLAILMFFT”, with -1.82; and “HMTSTSVKYVNSSSGLNVRKGPSTSYDKVTTLVNGTKVTVISTNNGWSKITSGSITGYVSSQYLSSSS”, with -1.27. For the sequence “HMTSVAYVIDRINKIQNVYSELEALGLKDEFEKILSNIEDLSKKDIREIKTLLKTKGVIKNLDDLNVKL”, the “soluble fraction (log2)” value amounted to 0.762.

In the case of “HMTSVQDLLRNGDRVGYQNGSTVKYWLEEMGFHKKDLLGYVTVEEYAEALQRGSGNGGVSAIVD”, the “soluble fraction (log2)” value was -0.811.

Take “HMTTARERVYKTLQQWIVNGTLLPEERLNDVELARYFSVSRTPVREALQMLAEQKLVKMVPSSGTFVA”: the “soluble fraction (log2)” value was -1.44. In the case of “HMTTELDTTAITPIIQKVLKANPDVVAKYKAGQQQVIGFLMGQVMRELSTKPNPKELQSLIVAQLQQA” it was -0.0252. In the case of “HMTTGEIIQRERTRLGLSQEKLAEQVGVSRQAVSKWELGDAVPDTDKLVPLARTLGISVDTLLD” it was 0.12. Then “HMTTGGAEELGRTERKIVEQVGRGLSNREIAQVLGLSEGTVRNYLSTILGKLGLRDRTQLAIWSVQTGFAA”, with 0.21; and “HMTTHERHEIIELLRQVGDPMRPKEISEALGKPSGAIRFLLSKLTEEGAIKKTGYGQYTYIP”, with -0.784. “HMTTLTPIGKMKGEIDGDFEAFYLAVDKDGQVYLNRDPDYSENRYEKSRGWELVTREQLAVYEKELHFIP”: the “soluble fraction (log2)” value is -0.707. Then “HMTTMYKSDVKGINYDVKAKSWFLRITFNGNQIPIGHFKTEEDAINVKQQLIPYIESKDYTSILAVKAKYS”, with -1.9; and “HMTTPDIIVPDVKGMTVAEAQKALEEKGFKVKLEEMTQEGAVPGDVIRIDPVAGTKRKEGAKITLLIARG”, with -0.0237; and “HMTTQTGTVKWFNEGKGFGFIAPDDGGKDLFAHFKEIQGTGFKTLAENQRVEFEVTQGQKGPQASKI”, with -0.0331.
